Results taken from paper PMC7369975, “Scalable High-Performance Production of Recombinant Horseradish Peroxidase from E. coli Inclusion Bodies” (International Journal of Molecular Sciences, 2020).

How the values were obtained:
Type in all cases: biochemical, Armoracia rusticana
[1] = test system: T1, pHRP (commercial plant HRP Type VI-A); test: absorbance at […] nm, initial rate, 96-well plate; settings: 1 mM H2O2 (saturating), 50 mM phosphate-citrate, pH 5; TMB 0.02-0.55 mM
T1 construct: gene PRXC1A; native glycosylated enzyme from horseradish root, commercial preparation, variable isoenzyme mixture, 44 kDa

[2] = test system: T1, pHRP (commercial plant HRP Type VI-A); test: absorbance at […] nm, initial rate, 96-well plate; settings: 1 mM H2O2 (saturating), 50 mM phosphate-citrate, pH 5, 30 °C; ABTS 0.1-7 mM
purified protein = substrate: Cc1cc(-c2cc(C)c(N)c(C)c2)cc(C)c1N; test: purified protein; settings: 1 mM H2O2 (saturating), 50 mM phosphate-citrate, pH 5, TMB 0.02-0.55 mM

## Cc1cc(-c2cc(C)c(N)c(C)c2)cc(C)c1N [TMB, 3,3′,5,5′-tetramethylbenzidine]
[1]
  Km: 101 ± 20 µM

## CCn1c(=NN=c2sc3cc(S(=O)(=O)O)ccc3n2CC)sc2cc(S(=O)(=O)O)ccc21 [ABTS, 2,2′-azino-bis (3-ethylbenzothiazoline-6-sulphonic acid)]
[2]
  Km: 700 ± 140 µM

B1: rHRP (refolded recombinant HRP, variant C1A) (Armoracia rusticana) (protein)
chain: QLTPTFYDNSCPNVSNIVRDTIVNELRSDPRIAASILRLHFHDCFVNGCDASILLDNTTSFRTEKDAFGNANSARGFPVIDRMKAAVESACPRTVSCADLLTIAAQQSVTLAGGPSWRVPLGRRDSLQAFLDLANANLPAPFFTLPQLKDSFRNVGLNRSSDLVALSGGHTFGKNQCRFIMDRLYNFSNTGLPDPTLNTTYLQTLRGLCPLNGNLSALVDFDLRTPTIFDNKYYVNLEEQKGLIQSDQELFSSPNATDTIPLVRSFANSTQTFFNAFVEAMDRMGNITPLTGTQGQIRLNCRVVNSNS
Purified protein
  Km: 105 ± 14 µM
  Vmax: 7150 µmol/min/mg
  kcat: 4170 ± 207 s⁻¹
  kcat/Km: 3.96e+07 ± 5.66e+06 M⁻¹ s⁻¹
